# In US20200131263A1 (JIANGSU HENGRUI MEDICINE, published 2020):
# T1: human h-GITR-his antigen (Sino Biological, Cat. #13643-H08H) (human, UniProt Q9Y5U5 26-161)
# T1 construct: Bought protein; also called GITR antigen; not shown: His tag
# T1 sequence (looked up): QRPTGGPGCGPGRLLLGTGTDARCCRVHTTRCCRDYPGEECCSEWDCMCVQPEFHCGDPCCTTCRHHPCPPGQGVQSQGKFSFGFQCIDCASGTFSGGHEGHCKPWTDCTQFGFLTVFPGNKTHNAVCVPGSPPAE
# T2: human GITR with mFc tag (huGITR-mFc) (human)
# T2 chain: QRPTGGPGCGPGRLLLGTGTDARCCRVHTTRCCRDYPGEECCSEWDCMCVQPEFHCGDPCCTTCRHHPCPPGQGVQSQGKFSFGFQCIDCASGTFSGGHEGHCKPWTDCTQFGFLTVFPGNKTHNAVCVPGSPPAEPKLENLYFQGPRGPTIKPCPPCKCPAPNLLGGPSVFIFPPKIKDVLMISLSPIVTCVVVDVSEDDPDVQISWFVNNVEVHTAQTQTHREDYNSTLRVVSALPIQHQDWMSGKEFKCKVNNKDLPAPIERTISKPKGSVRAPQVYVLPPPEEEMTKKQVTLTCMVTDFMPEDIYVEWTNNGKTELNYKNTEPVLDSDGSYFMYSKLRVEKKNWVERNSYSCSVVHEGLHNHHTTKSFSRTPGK
# T3: mouse GITR (mouse, UniProt O35714 20-153, limits assumed)
# T3 sequence (looked up): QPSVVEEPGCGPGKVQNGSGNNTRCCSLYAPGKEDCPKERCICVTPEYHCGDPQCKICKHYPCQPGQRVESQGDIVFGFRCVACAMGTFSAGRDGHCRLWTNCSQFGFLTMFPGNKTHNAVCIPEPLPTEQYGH
# B1: humanized anti-GITR antibody hu18F10 (antibody, human IgG1, kappa, V domains shown)
# VH: QVQLVQSGAEVVKPGASVKVSCKASGYTFTGYDLHWVRQAPGQGLEWIGVISTYYGDANYNQKFQGRVTMTVDTSSSTAYMELSRLRSEDTAVYYCTRLAESYFFDYWGQGTTLTVSS
# VL: EIVLTQSPATLSASPGERVTLTCRASSSVSYLHWYQQKPGQAPKPWIYDTSNLASGFPARFSGDGSGTDYTLTISSLEAEDAAVYYCHQRSSYPFTFGSGTKLEIKR
# B2: reference antibody BMAB (Merck's MK-4166 antibody) (antibody, V domains shown)
# VH: QVQLQQSGAEVKKPGSSVRVSCKASGGTFNNNAINWVRQAPGQGLEWMGGIIPMFGTAKYSQNFQGRVAITADESTGTASMELSSLRSEDTAVYYCARSRDLLLFPHHALSPWGRGTMVTVSS
# VL: SSELTQDPAVSVALGQTVRVTCQGDSLRSYYASWYQQKPGQAPVLVIYGKNNRPSGIPDRFSGSSSGNTASLTITGAQAEDEADYYCSSRDSSGNHWVFGGGTELTVLG
# B3: humanized anti-GITR antibody hu8A11 (antibody, human IgG1, kappa, V domains shown)
# VH: EVQLVESGGGLVQPGGSLRLSCAASGFTFSSYAMSWVRQAPGKGLEWVAYISSGGSTYYPDSVKGRFTISRDNAKNSLYLQMNSLRAEDTAVYYCAREGYGTYGDYWGQGTTLTVSS
# VL: DIVMTQSPSSLAVSVGERVTISCKSSQSLLYSTNQKNYLAWYQQKPGQSPKLLIYWASTRESGVPDRFSGSGSGTDFTLTISSLQAEDVAVYYCQQYYSYLRTFGGGTKLEIKR
# notes: also called h8A11
# B4: mouse monoclonal antibody 18F10 (antibody, V domains shown)
# VH: QVQLQQSGAELVRPGVSVKISCKCSGYTFTGYDLHWVKQSHAKSLDWIGVISTYYGDANYNQKFKGKATMTVDKSSSTAYMELARLTSEDSAIYYCTRLAESYFFDYWGQGTTLTVSS
# VL: QILLTQSPAIMSASPGEKVTMTCRASSSVSYIHWYQQKPGSSPKPWIYDTSDLASGFPARFSGTGSGTSYSLIISSMEAEDAATYYCHQRSSYPFTFGSGTKLEIK
# notes: Mouse antibody from a hybridoma
# B5: mouse monoclonal antibody 8A11 (antibody, V domains shown)
# VH: EVKLVESGGGLVKPGGSLKLSCAASGFTFSSYAMSWVRQTPEKRLEWVAYISSGGSTYYPDSVKGRFTISRENARNILYLQMSSLRSEDTAMYYCAREGYGTYGDYWGQGTTLTVSS
# VL: DIVMSQSPSSLAVSVGEKVTMSCKSSQSLLYSTNQKNYLAWYQQKPGQSPKLLIYWASTRESGVPDRFTGSGSGTDFTLTISSVKAEDLAVYYCQQYYSYLRTFGGGTKLEIK
# notes: as for B4
# B6: mouse monoclonal antibody 7D9 (antibody, V domains shown)
# VH: DVQLQESGPGLVKPSQSLSLTCTVTGYSITSDYAWNWIRQFPGNKLEWLGYISYSGSTYYNPSLKSRISLTRDTSKNQFFLQLNSVTSEDTATYYCARWDYRYDGRGFDYWGQGTTLTVSS
# VL: DIQMTQSPSSLSASLGERVSLTCRASQDIGSGLNWLQQEPDGTIKRLIYATSSLDSGVPKRFSGSRSGSDYSLTISSLESEDFVDYNCLQYTSTPWTFGGGTKLEIK
# notes: as for B4
# B7: mouse monoclonal antibody 16G9 (antibody, V domains shown)
# VH: QVQLQQSGAELAKPGASVKMSCKASGYTFTTYWIHWIKQRPGQGLEWIGYINPSTGYTDYNQNFKDKATLTADQYSSTAYMQLSSLTFEDSAVYYCANYYGSTPYYWGRGTTLTVSS
# VL: QIVLTQSPAIMSASPGEKVTMTCSASSSVTYVHWYQQKSGASPERWIFDASKLASGVPARFSGSGSGTSYSLTISSMETEDAATYYCQQWSSNPLTFGAGTKLELK
# notes: as for B4
# Target: T1, human h-GITR-his antigen (Sino …)
# Test: SPR (Biacore T200), antibody captured on Protein A chip, h-GITR-his as analyte, 1:1 Langmuir fit
# Method: The affinities of humanized anti-GITR antibodies to be tested and human GITR were measured by Biacore, GE instruments.
# A Protein A biosensor chip (Cat. 29-1275-56, GE) for a Biacore Instrument (Biacore T200, GE) was used to affinity-capture a certain amount of antibodies to be tested, and then a series of concentration gradients of GITR antigen (human h-GITR-his antigen was selected from Sino Biological Company (Cat. #13643-H08H)) were flowed through the surface of the chip. Real-time reaction signals were detected by a Biacore Instrument (Biacore T200, GE), thus obtaining the binding and dissociation curves. The biochip was rinsed and regenerated with 10 mM glycine pH 1.5 after each dissociation cycle, and the buffer was PBST, pH7.4. The experimental data were fitted with (1:1) Langmuir model using Biacore T200 Evaluation 2.0, GE software, and the affinity values were obtained, as shown in Table 2.
Kd [nM],koff [s⁻¹],kon [M⁻¹ s⁻¹],Binder
0.33,0.000204,613000,B1
0.185,,,B2
0.62,0.000104,168000,B3

# Target: cynomolgus GITR (cyno-GITR) (cynomolgus)
# Test: ELISA, cyno GITR coated at 1 ug/ml
# Method: (§1) The GITR proteins from different species (mouse/cyno GITR) were diluted to 1 μg/ml with PBS buffer pH 9.5, and 50 μl/well was added to a 96-well microplate, which was incubated overnight (16-18 hours) at 4° C. The buffer in the plate was discarded prior to adding 300 μl/well of 1% BSA blocking buffer diluted with PBS, and the plate was incubated for blocking for 2.5h at 37° C. in an incubator. After blocking, the blocking buffer was discarded, and the plate was washed three times with PBST buffer (pH 7.4 PBS containing 0.05% tween-20). 50 μl/well antibodies to be tested were added to the plate, wherein the antibodies were diluted to different concentrations with sample diluent (pH7.4 PBS), and the plate was incubated at 37° C. in an incubator for 30 minutes. After incubation, the reaction buffer in the microplate was discarded prior to washing the plate with PBST three times, and 50 μL/well of Peroxidase AffiniPure Goat Anti-Human secondary antibody (JacksonImmunoResearch, 109-035-088) which was diluted with sample diluent was added, and the plate was incubated at 37° C. for 1 hour. […] The absorption value at 450 nm was read by a MD plus 384 microplate reader.
row,EC50 [nM],Binder
1,0.744,B4
2,5.21,B5

# Target: T2, human GITR with mFc tag (huGITR-mFc)
# Test: ELISA, huGITR-mFc coated at 1 ug/ml
# Method: The huGITR-mFc was diluted to 1 μg/ml with CBS buffer pH 9.5, added to the 96-well microplate at 50 μl/well, and incubated overnight at 4° C. The supernatant was discarded prior to 300 μl/well of 1% BSA blocking buffer diluted with PBS to the wells, and the plate was incubated for 2.5h at 37° C. in an incubator for blocking. After blocking, the blocking buffer was discarded, and the plate was washed three times with PBST buffer (pH 7.4 PBS containing 0.05% tween-20). 50 μl/well of the antibodies to be tested were added, with the antibodies being diluted to different concentrations with sample diluent, and the plate was incubated at 37° C. in an incubator for 30 minutes. The plate was then washed with PBST three times, and 50 μL/well of Peroxidase AffiniPure Goat Anti-Human secondary antibody (Jackson immune research, 115-035-088) diluted with sample diluent was added, followed by incubating at 37° C. for 30 minutes. After washing the plate with PBST three times, 50 μl/well of TMB chromogenic substrate was added and the plate was incubated at room temperature for 5 minutes prior to adding 50 μl/well of 1M […] to terminate the reaction. The absorption value at 450 nm was read by a MD plus 384 microplate reader. The data were analyzed with SoftMax Pro6.2.1 to obtain binding EC50 values of the anti-GITR antibodies to GITR, as shown in Table 1.
row,EC50 [nM],Binder
1,0.055,B6
2,0.103,B4
3,0.077,B5
4,0.075,B7
5,0.074,B2

# Target: T2, human GITR with mFc tag (huGITR-mFc)
# Test: ELISA, blocking of GITRL-His binding to coated GITR-Fc
# Method: huGITR-mFc was diluted to 2 μg/ml with CBS buffer pH 9.5, added to the 96-well microplate at a volume of 50 μl/well, and incubated overnight at 4° C. The supernatant was discarded prior to adding 300 μl/well of 1% BSA blocking buffer diluted with PBS, and the plate was incubated for blocking for 2.5h at 37° C. in an incubator. After blocking, the blocking buffer was discarded, and the plate was washed three times with PBST buffer (pH 7.4 PBS containing 0.05% tween-20) prior to adding antibodies for pre-incubation, wherein the antibodies were diluted into gradient concentrations with sample diluent. 0.15 μg/ml of GITRL-His protein in a volume of 50 μl/well was added, mixed and incubated at 37° C. in an incubator for 30 minutes. The reaction buffer was then discarded, the plate was washed with PBST three times, and 50 μL/well of Peroxidase AffiniPure Goat Anti-Human secondary antibody diluted with sample diluent at a ratio of 1:4000 was added, then the place was incubated at 37° C. for 30 minutes. After washing the plate with PBST three times, 50 μl/well of TMB chromogenic substrate was added and the plate was incubated at room temperature for 5 minutes prior to adding 50 μl of 2M H₂SO₄ to terminate the reaction. The absorption value at 450 nm was read by a MD plus 384 microplate reader. The EC50 values of GITR antibodies binding to GITR were obtained by analyzing the data with SoftMax Pro6.2.1, as shown in Table 1.
row,IC50 [nM],Binder
1,3.89,B6
2,6.04,B4
3,7.57,B5
4,10.3,B7
5,1.39,B2

# Target: T3, mouse GITR
# Test: ELISA, mouse GITR coated at 1 ug/ml
# Method: as §1
row,binding result,Binder
1,no binding,B4
2,no binding,B5
